The target in this test is Thr315Ala variant of the catalytic domain of ICR^Mc (ICR^Mccat^Thr315Ala) (Moraxella catarrhalis strain BC1). The test can be described thus: crystal structure.

Broadly, the stoichiometry N is a count of units in the complex or per binding partner.

As to “Thr315Ala variant of the catalytic domain of ICR^Mc (ICR^Mccat^Thr315Ala) (domain or fragment)”, the stoichiometry N came out at 2.

(Values after PMC6197822.)
